Read-outs that look alike come from different tables or passages of the source. Where no end group is shown, it is not given here. [ ]: non-standard residue; d: D form.
Columns and labels:
[1] = biological target: T1, human secretin receptor (SCTR) (human, UniProt P47872 23-440); test: radioligand binding; saturation binding of I^125-secretin on U2OS-SCTR membrane isolates; total, unspecific and specific binding
[2] = system: SCTR; conditions: variant of rat secretin(5–27); cited from earlier work
Excerpt: (§1) Early studies of secretin had shown that its biological activity resides particularly in the amino terminus. […] Despite their lack of activation, these truncated peptides were able to displace native secretin at high concentrations.

[3] = in vivo; cited from earlier work
Excerpt: Due to their vulnerability towards proteolytic degradation, most peptide hormones have short half-lives of only a few minutes. […] To chemically stabilize a peptide ligand by the introduction of artificial amino acids, the amino acid positions crucial for its activity need to be identified. The experimental strategy included design and synthesis of a library of secretin variants that would contain single amino acid substitutions as well as truncations on either end. To characterize a large number of individual peptides ...

[4] = biological target: human SCTR (Homo sapiens, UniProt P47872); test: GloSensor cAMP assay, agonist mode; type: cell-based; parameters: expressed in transfected cells; conditions: GloSensor cAMP assay; at least 3 independent experiments in duplicates; read-out: cAMP Production, Intrinsic Activity
Chain of human SCTR (P47872 23-440): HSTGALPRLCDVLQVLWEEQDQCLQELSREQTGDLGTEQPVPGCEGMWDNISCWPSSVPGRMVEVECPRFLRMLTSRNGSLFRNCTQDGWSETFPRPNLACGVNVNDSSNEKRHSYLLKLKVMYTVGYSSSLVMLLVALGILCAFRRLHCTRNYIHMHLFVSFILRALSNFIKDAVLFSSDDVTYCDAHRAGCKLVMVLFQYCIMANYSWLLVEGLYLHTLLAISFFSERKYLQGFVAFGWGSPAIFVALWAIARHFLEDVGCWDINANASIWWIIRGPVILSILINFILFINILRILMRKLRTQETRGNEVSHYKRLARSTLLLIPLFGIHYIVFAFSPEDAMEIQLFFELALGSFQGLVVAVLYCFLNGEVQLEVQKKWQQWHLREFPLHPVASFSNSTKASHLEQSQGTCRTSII
Method: Analysis of downstream signaling of activated SCTR via Gαs G-protein subunits was performed by monitoring intracellular cAMP utilizing the GloSensor system (Promega, Walldorf, Germany) in accordance with the supplier protocol. Measurements were performed using the EnVision Analyzer (PerkinElmer, Rodgau, Germany). For evaluation, concentration–response curves (signal-to-noise ratios plotted) employing the derived statistical mean and SD for estimation of the respective EC50 were calculated using Spotfire Decision Site (TIBCO, Palo Alto, CA, USA). For the analysis of antagonists, a modified protocol was used. Treatment of cells and dilution of the potential antagonist was performed as previously described. Ligand dilutions were added to cells and incubated at room temperature for 5 min. Successively, secretin was added at a final concentration of 0.5 nM for an additional 15 min at room temperature. The emitted chemiluminescence, which correlates with the cAMP concentration, was detected with suitable filters. Evaluation of data was performed as previously described with a calculation of half-maximal inhibitory concentration (IC50).

[5] = system: isolated pancreatic membranes; conditions: cited from earlier work
Excerpt: as §1

[6] = system: pancreatic secretion of both fluid and bicarbonate; conditions: cited from earlier work
Excerpt: as §1

[7] = biological target: T1, human secretin receptor (SCTR)
[8] = biological target: T1, human secretin receptor (SCTR); test: cell-based or functional assay

T1 sequence (P47872 23-440): as above

^125I-labelled W27, Y28-secretin (peptide)
Kd [1]: 74 pM

[I17, R25]-secretin(5–27)
affinity [2]: 23 nM

CC(C)C[C@H](NC(=O)CNC(=O)[C@H](CCC(N)=O)NC(=O)[C@H](CC(C)C)NC(=O)[C@H](CC(C)C)NC(=O)[C@H](CCCNC(=N)N)NC(=O)[C@H](CCC(N)=O)NC(=O)[C@H](CC(C)C)NC(=O)[C@H](CCCNC(=N)N)NC(=O)[C@H](C)NC(=O)CNC(=O)[C@H](CCC(=O)O)NC(=O)[C@H](CCCNC(=N)N)NC(=O)[C@H](CC(C)C)NC(=O)[C@H](CCCNC(=N)N)NC(=O)[C@H](CO)NC(=O)[C@H](CC(C)C)NC(=O)[C@H](CCC(=O)O)NC(=O)[C@H](CO)NC(=O)[C@@H](NC(=O)[C@H](Cc1ccccc1)NC(=O)[C@@H](NC(=O)CNC(=O)[C@H](CC(=O)O)NC(=O)[C@H](CO)NC(=O)[C@@H](N)Cc1c[nH]cn1)[C@@H](C)O)[C@@H](C)O)C(=O)N[C@H](C(N)=O)C(C)C [Peptide 1, reference compound]
half-life [3]: 2.5 to 4 min | Emax [4]: 100%

Secretin(2–27): N-terminally truncated secretin variant (amino acids 2–27) of the literature (SDGTFTSELSRLREGARLQRLLQGLV; ends and bridges not checked; UniProt P09683 29-54, looked up, fragment)
effect on cAMP synthesis / agonistic effects, in words [5]: severe reduction on cAMP synthesis

[(CH2NH)4,5]secretin
effect on pancreatic secretion, in words [6]: dose-dependently increased pancreatic secretion of both fluid and bicarbonate

TSELSRLREGARLQRLLQGLV [peptide 120, secretin(7–27)]
cAMP production (GloSensor), agonist mode: EC50 [7]: 3.37 µM | cAMP production (GloSensor), agonist mode: intrinsic activity [% of secretin] [7]: 90.6%

[dR]FTSELSRLREGARLQRLLAGLV (ends and bridges not checked) [peptide 143]
cAMP production (GloSensor), agonist mode: intrinsic activity [% of secretin] [8]: 27.5%

[dR]FTSELSRLREGARLQRLLQALV (ends and bridges not checked) [peptide 144]
cAMP production (GloSensor), agonist mode: intrinsic activity [% of secretin] [8]: 31.1%

Source: article PMC8944975, “Secretin Receptor as a Target in Gastrointestinal Cancer: Expression Analysis and Ligand Development” (Biomedicines, 2022)
